The target of this test is recombinant CMG2-Fc-Apo (rCMG2-Fc-Apo) protein (human) (UniProt P58335). The experiment in a line: non-reducing SDS-PAGE.

For the substance “recombinant CMG2-Fc-Apo (rCMG2-Fc-Apo) protein (from UniProt P58335 34-318) (Fc fusion)”, the stoichiometry N stood at 2.

Values taken from publication PMC5297723.
